Values of other authors as cited in article PMC10601247.

Legend:
[1] = biological target: flotillin-1 (Homo sapiens) (UniProt O75955); assay: SPR
[2] = biological target: flotillin-2 (Homo sapiens) (UniProt Q14254); assay: SPR
UniProt Q14254, sequence (Q14254 2-428): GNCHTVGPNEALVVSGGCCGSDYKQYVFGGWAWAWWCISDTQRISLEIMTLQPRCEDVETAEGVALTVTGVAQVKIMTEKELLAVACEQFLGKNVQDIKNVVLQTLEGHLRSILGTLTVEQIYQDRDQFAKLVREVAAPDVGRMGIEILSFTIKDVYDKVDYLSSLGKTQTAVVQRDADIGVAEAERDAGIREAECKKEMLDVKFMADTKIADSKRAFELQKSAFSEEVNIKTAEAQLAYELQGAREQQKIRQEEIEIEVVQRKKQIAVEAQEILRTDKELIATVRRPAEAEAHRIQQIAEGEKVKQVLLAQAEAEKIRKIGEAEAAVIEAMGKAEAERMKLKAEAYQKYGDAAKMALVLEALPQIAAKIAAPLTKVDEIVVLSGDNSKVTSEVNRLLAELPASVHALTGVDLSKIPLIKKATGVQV

UniProt O75955, sequence (O75955 whole entry): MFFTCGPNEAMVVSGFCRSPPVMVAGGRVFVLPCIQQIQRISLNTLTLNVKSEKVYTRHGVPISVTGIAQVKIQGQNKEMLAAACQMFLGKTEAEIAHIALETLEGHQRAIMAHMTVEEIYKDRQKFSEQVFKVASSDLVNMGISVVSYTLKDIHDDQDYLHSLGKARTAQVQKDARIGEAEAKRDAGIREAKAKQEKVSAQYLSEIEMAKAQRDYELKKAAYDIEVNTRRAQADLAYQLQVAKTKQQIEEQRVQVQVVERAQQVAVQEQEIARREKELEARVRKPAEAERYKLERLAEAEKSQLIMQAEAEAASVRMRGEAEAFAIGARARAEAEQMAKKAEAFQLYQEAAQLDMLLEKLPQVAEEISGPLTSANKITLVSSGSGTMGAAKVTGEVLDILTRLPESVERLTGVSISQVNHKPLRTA

Kd [1]: 23 nM
Kd [2]: 31 nM
Substance: MPP1 (from UniProt Q00013)
